Key:
[1] = target: T1, H1-NTD (hybrid binding domain) (UniProt O60930 27-73); experiment: thermal shift
T1 chain: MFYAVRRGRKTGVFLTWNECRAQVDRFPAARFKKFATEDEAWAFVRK

P54nrb = target: T2, P54nrb (UniProt Q15233 1-471); experiment: thermal shift
T2 sequence: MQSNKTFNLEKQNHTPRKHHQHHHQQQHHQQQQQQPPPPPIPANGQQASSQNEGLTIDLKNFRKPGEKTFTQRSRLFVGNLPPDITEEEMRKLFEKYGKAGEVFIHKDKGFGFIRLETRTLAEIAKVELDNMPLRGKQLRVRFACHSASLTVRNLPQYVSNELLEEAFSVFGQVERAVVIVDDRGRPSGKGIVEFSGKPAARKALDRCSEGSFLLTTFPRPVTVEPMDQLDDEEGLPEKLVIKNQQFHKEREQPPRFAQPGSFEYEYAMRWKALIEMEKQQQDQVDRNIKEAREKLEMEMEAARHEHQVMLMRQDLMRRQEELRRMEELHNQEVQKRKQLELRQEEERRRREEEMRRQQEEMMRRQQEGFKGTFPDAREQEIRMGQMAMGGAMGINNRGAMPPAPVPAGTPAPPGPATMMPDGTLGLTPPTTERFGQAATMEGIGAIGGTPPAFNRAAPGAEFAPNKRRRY

Binder: GCTAGCCTCTGGATTT (XNA, PS; 3-10-3 2'-F gapmer) [760614 3-10-3 F PS-ASO]
- binding result [1]: binds

Binder: CTGCTAGCCTCTGGATTTGA (XNA, PS; 5-10-5 2'-F gapmer) [404130 5-10-5 F PS-ASO]
- binding result (P54nrb): binds
